Test results published in patent US20190040368A1.

Biological target: recombinant human iduronate-2 sulfatase (rhIDS) (human) (UniProt P22304)
Assay: cell-based or functional assay

Chain of recombinant human iduronate-2 sulfatase (rhIDS) (human) (P22304 26-550 limits assumed): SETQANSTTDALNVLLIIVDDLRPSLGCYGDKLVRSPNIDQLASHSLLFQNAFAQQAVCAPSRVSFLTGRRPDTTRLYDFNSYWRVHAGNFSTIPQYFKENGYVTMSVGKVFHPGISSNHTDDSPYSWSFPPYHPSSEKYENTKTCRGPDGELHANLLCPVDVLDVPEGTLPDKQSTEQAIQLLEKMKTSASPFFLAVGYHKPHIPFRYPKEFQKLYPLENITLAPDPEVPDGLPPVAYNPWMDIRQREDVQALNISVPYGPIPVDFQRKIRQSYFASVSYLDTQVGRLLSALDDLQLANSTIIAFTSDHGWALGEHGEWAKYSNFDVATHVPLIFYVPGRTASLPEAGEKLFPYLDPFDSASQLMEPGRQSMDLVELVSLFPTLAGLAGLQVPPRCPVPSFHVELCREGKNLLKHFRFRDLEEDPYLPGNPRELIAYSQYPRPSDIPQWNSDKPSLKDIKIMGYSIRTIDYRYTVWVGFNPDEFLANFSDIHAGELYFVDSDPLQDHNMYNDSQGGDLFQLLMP

B1: Hemicentrotus pulcherrimus FGE fusion protein (Lip2pre-HpFGE-6HIS-HDEL) (enzyme)
chain: ENEDINQNISPTQSHTTATTEEELAEARGEEIDSDPTSEGSGAGEGCGCGSSALNRNHDEDALGLALEENLHDHVQEGAALKYSREANDPISMDHPEANVGAFPRTNQMNFIEGGTFRMGTDKAKIYLDGESPSRLVTLDPYYFDVYEVSNSEFELFVNTTSYITEAEKFGDSFVLEARISEEVKKDISQVVAAAPWWLPVKGAEWRHPEGPDSSISSRMDHPVTHISWNDATAYCQWAGKRLPTEAEWENAARGGLNNRLFPWGNKLMPKDHHRVNIWQGEFPKVNTAEDGYEGTCPVTAFEPNGYGLYNTVGNAWEWVADWWTTVHSPESQNNPVGPDEGTDKVKKGGSYMCHISYCYRYRCEARSQNSPDSSACNLGFRCAATNLPEDIPCSNCNDSTPHHHHHHHDEL
  % FGly (LC-MS, cation exchange purified); OXYY1801 (20° C.), 1c rhIDS, 2c HpFGE: 100%
  % FGly (LC-MS, cation exchange purified); OXYY1801 (24° C.), 1c rhIDS, 2c HpFGE: 100%
  % FGly (LC-MS, cation exchange purified); OXYY1801 (26° C.), 1c rhIDS, 2c HpFGE: 70.4%

B2: Gallus gallus Lip2-GgFGE-His6-HDEL fusion construct (enzyme)
chain: GKETAPGGNCGCSASRSRGGEREAVATVRRYSAAANDGRSSGRGPMVAIPGGVFTMGTDEPEIQQDGEWPARRVHVNSFYMDQYEVSNQEFERFVNSTGYLTEAEKFGDSFVFEGMLSEEVKAEIHQAVAAAPWWLPVKGANWRQPEGPGSSILSRMDHPVLHVSWNDAVAFCTWAGKRLPTEAEWEYGCRGGLEKRLFPWGNKLQPKGQHYANIWQGVFPTNNTAEDGYKGTAPVTAFPPNGYGLYNIVGNAWEWTSDWWAVHHSADEAHNPKGPSSGTDRVKKGGSYMCHKSYCYRYRCAARSQNTPDSSASNLGFRCAADALPDPQHHHHHHHDEL
  % FGly (LC-MS); co-expression with GgFGE: 78%

B3: Columba livia Lip2-C1FGE-His6-HDEL fusion construct (enzyme)
chain: MVVIPGGVFTMGTDEPAIQQDGEWPVRKVHVNSFYMDRYEVSNEDFERFVNSTGYVTEAEKFGDSFVFEGMLSEEVKAEIHQAVAAAPWWLPVKGANWKHPEGPDSNISNRMDHPVLHVSWNDAVAFCTWAGKRLPTEAEWEYSCRGGLENRLFPWGNKLQPKGQHYANIWQGVFPTNNTAEDGYKGTAPVTAFPPNGYGLYNIVGNAWEWTADWWAVHHSTEEVHNPKGPSSGTDRVKKGGSYMCHKSYCYRYRCAARSQNTPDSSASNLGFRCAADASPELPHHHHHHHDEL
  % FGly (LC-MS); co-expression with ClFGE: 100%

B4: Monodelphis domestica Lip2-MdFGE-His6-HDEL fusion construct (enzyme)
chain: AARGLGSEAGSAAADAAHPAGTCGCGSPQRPGTAAHRYSREANVAEPASAERPVLTSQMAHIPAGVFTMGTDEPQIKQDGEGPARRVRINSFYMDLYEVSNAEFERFVNSTGYVTEAEKFGDSFVFDSMLSDQVKSDIHQAVAAAPWWLPVKGANWRHPEGPDSSILHRRDHPVLHVSWNDAVAYCTWAGKRLPTEAEWEYSCRGGLENRLFPWGNKLQPKGQHYANIWQGEFPVSNTGEDGYQGTAPVTAFPPNGYGLYNIVGNAWEWTSDWWTVHHSADETLDPKGPPSGSDRVKKGGSYMCHKSYCYRYRCAARSQNTPDSSASNLGFRCAADRLPDTHHHHHHHDEL
  % FGly (LC-MS); co-expression with MdFGE: 100%
